# Laboratory results from patent US20250327097A1, “ORGANISMS PRODUCING LESS CROTONIC ACID” (Global Bioenergies, priority 2021, published 2025).
# Residue numbers refer to the chain shown, from its start. In names and notes the source's numbering stands.
# B1: I283T-P284D-N287P-S322T-N388M-C430N-L432F-L434W-S436N-dG462-A463F (protein)
# chain: MFLKSLREQINLLKRQGDLRIINRPVDSYLEAAAIIRRSTETKAPVPLMTNIKGYPGCSIVGGLAALSSNPEYPLSRVAMSLGLSTTASAQSIVQYLIDGLKKTPYLPVEIDSNSAPCKQNILRGEDASLAHFPIPQVHQHDGNRYVNTWGVFIVESPDGQWCNWSIQRVQYLNDRQMIALVFPSQHISDIWEEWVKIGKPMPYALVQGCEPIVPYIAGLPLLERNVNEAEYIGALYGKGIEVVKCETHDLRVPASSEVVIEGYFAITREGVEGPFGEFAGYTDNEPSLQPILSITAISWQDDPIWPVVAEGKPVDEYHTCTGIGDAAAIQNVLLTANLPVSFVWVPLYSACHLMIVSINRHWRQTHPDLTSEQLTKKVGDVIHQTRMSIKLPKIVVLDDDVDPADTESLLWALATRIHPERKRYFYESNIFPWLNCYSEEERHNRKGKRVIIDALLPENHGFISSFDYAYPDDIKQRVLMHWETDFSHD
# B2: I283T-P284D-N287P-S322T-N388M-C430N-L432F-L434W-S436N-H461A-dG462 (protein)
# chain: B1 chain with H461A, F463A
# B3: I283T-P284D-N287P-S322T-N388M-C430N-L432F-L434W-S436N-H461T-dG462-A463T (protein)
# chain: B1 chain with H461T, F463T
# B4: N388M-K394R-C430N-L432F-L434W-S436N-H444V (protein)
# chain: B1 chain with T283I, D284P, P287N, T322S, K394R, H444V, F463A
# B5: I283T-P284D-N287P-S322T-N388M-C430N-L432F-L434W-S436N-H461V-dG462-A463T (protein)
# chain: B1 chain with H461V, F463T
# B6: I283T-P284D-N287P-S322T-N388M-C430N-L432F-L434W-S436N-H461Y-dG462-A463T (protein)
# chain: B1 chain with H461Y, F463T
# B7: I283T-P284D-N287P-S322T-N388M-E421V-R422F-C430N-L432F-L434W-S436N-H461T-dG462 (protein)
# chain: B1 chain with E421V, R422F, H461T, F463A
# B8: I283T-P284D-N287P-S322T-N388M-C430N-L432F-L434W-S436N-H461V-dG462 (protein)
# chain: B1 chain with H461V, F463A
# B9: N285M-N388M-K394R-C430N-L432F-L434W-S436N (protein)
# chain: B1 chain with T283I, D284P, N285M, P287N, T322S, K394R, F463A
# B10: I283T-P284D-N287P-S322T-N388M-E421V-R422F-C430N-L432F-L434W-S436N-H461V-dG462 (protein)
# chain: B1 chain with E421V, R422F, H461V, F463A
# B11: I283T-P284D-N287P-S322T-N388M-C430N-L432F-L434W-S436N-H461Y-dG462 (protein)
# chain: B1 chain with H461Y, F463A
# B12: I283T-P284D-N287P-S322T-N388M-R422F-C430N-L432F-L434W-S436N-H461T-dG462 (protein)
# chain: B1 chain with R422F, H461T, F463A
# B13: I283T-P284D-N287P-S322T-N388M-C430N-L432F-L434W-S436N-H461Y-dG462-A463T-S465V (protein)
# chain: B1 chain with H461Y, F463T, S465V
# B14: I283T-P284D-N287P-S322T-N388M-C430N-L432F-L434W-S436N-H461A-dG462-S465V (protein)
# chain: B1 chain with H461A, F463A, S465V
# B15: I283T-P284D-N287P-S322T-N388M-E421V-C430N-L432F-L434W-S436N-H461T-dG462-A463T (protein)
# chain: B1 chain with E421V, H461T, F463T
# B16: I283T-P284D-N287P-S322T-N388M-E421V-C430N-L432F-L434W-S436N-H461T-dG462 (protein)
# chain: B1 chain with E421V, H461T, F463A
# B17: I283T-P284D-N287P-S322T-N388M-C430N-L432F-L434W-S436N-H461V-dG462-A463T-S465V (protein)
# chain: B1 chain with H461V, F463T, S465V
# B18: I283T-P284D-N287P-S322T-N388M-E421V-R422F-C430N-L432F-L434W-S436N-dG462-A463T (protein)
# chain: B1 chain with E421V, R422F, F463T
# B19: I283T-P284D-N287P-S322T-N388M-C430N-L432F-L434W-S436N-dG462-A463S (protein)
# chain: B1 chain with F463S
# B20: I283T-P284D-N287P-S322T-N388M-R422F-C430N-L432F-L434W-S436N-H461V-dG462 (protein)
# chain: B1 chain with R422F, H461V, F463A
# B21: I283T-P284D-N287P-S322T-N388M-C430N-L432F-L434W-S436N-H461A-dG462-A463T (protein)
# chain: B1 chain with H461A, F463T
# B22: I283T-P284D-N287P-S322T-N388M-C430N-L432F-L434W-S436N-H461T-dG462 (protein)
# chain: B1 chain with H461T, F463A
# B23: I283T-P284D-N287P-S322T-N388M-E421V-C430N-L432F-L434W-S436N-dG462-A463T (protein)
# chain: B1 chain with E421V, F463T
# B24: I283T-P284D-N287P-S322T-N388M-C430N-L432F-L434W-S436N-H461A-dG462-A463T-S465V (protein)
# chain: B1 chain with H461A, F463T, S465V
# B25: I283T-P284D-N287P-S322T-N388M-C430N-L432F-L434W-S436N-H461Y-dG462-S465V (protein)
# chain: B1 chain with H461Y, F463A, S465V
# B26: I283T-P284D-N287P-S322T-N388M-E421V-R422F-C430N-L432F-L434W-S436N-dG462 (protein)
# chain: B1 chain with E421V, R422F, F463A
# B27: I283T-P284D-N287P-S322T-N388M-C430N-L432F-L434W-S436N-H461A-dG462-S465I (protein)
# chain: B1 chain with H461A, F463A, S465I
# B28: I283T-P284D-N287P-S322T-N388M-R422F-C430N-L432F-L434W-S436N-dG462-A463T (protein)
# chain: B1 chain with R422F, F463T
# B29: I283T-P284D-N287P-S322T-N388M-C430N-L432F-L434W-S436N-dG462-A463T-S465V (protein)
# chain: B1 chain with F463T, S465V
# B30: I283T-P284D-N287P-S322T-N388M-E421V-C430N-L432F-L434W-S436N-H461V-dG462 (protein)
# chain: B1 chain with E421V, H461V, F463A
# B31: I283T-P284D-N287P-S322T-N388M-C430N-L432F-L434W-S436N-dG462-S465V (protein)
# chain: B1 chain with F463A, S465V
# B32: I283T-P284D-N287P-S322T-N388M-C430N-L432F-L434W-S436N-H461V-dG462-S465V (protein)
# chain: B1 chain with H461V, F463A, S465V
# B33: N388M-K394R-C430N-L432F-L434W-S436N-H444T (protein)
# chain: B1 chain with T283I, D284P, P287N, T322S, K394R, H444T, F463A
# Test system: 3-methylcrotonic acid
# Format: biochemical, Yersinia frederiksenii
# Parameters: key: “+” representing a low increase in activity; “++++” representing a high increase in activity
row,Molecule,Activity relative to WT
1,B1,++++
2,B2,++++
3,B3,++++
4,B4,+
5,B5,++++
6,B6,++++
7,B7,++++
8,B8,++++
9,B9,+
10,B10,++++
11,B11,++++
12,B12,++++
13,B13,++++
14,B14,++++
15,B15,++++
16,B16,++++
17,B17,++++

row,Molecule,Activity relative to WT
1,B18,++++
2,B19,++++
3,B20,++++
4,B21,++++
5,B22,++++
6,B23,++++
7,B24,++++
8,B25,++++
9,B26,++++
10,B27,++++
11,B28,++++
12,B29,++++
13,B30,++++
14,B31,++++
15,B32,++++
16,B33,+
